Assay: label from the status in PepcDB records
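Further: failed if final PepcDB status was selected cloned or expressed and not failed if soluble or beyond.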

With “MLSFRARLFLAFALLWLLFLGGGWYLAGRSVDQALKRRLEATLAQDALRAAEAYQKGQAGALLTTGGVYLHLYAQDGTPIALTRPDHRLPPERLRRAGPTPEVLWEEGFAAALVATPLGLLVLTAETSPIEAALEALREALLRAFLLLSPLGLALVYLTARLAARPLEAVAREITRRSPDRLDPVPHRLPQDEFGRMVEAVNALLQALKEAKERERAFLAEASHELRTPLTVLLGHLDRLGRNPQDLEALRTARATAERMRRLVEDLLALARGEVERNLNLHIVDLGEVAREAALEHGVAAEAESAEVLGDPDRLLQLLRNLVANAVRAAGKEGVRVRVRREADHALLEVEDSGPGIPEDLLPRLFQRFARGPGGGTGLGLAIAHAIAKAHGGEIAVESRPGRTVFRVRLPLLEEEA” as the sequence, how does the protein production read?
Its protein production is “failed”.

With “MLSGMSGGMLFIVFAWLIGHAVLRIVPTAYKPVLMVRSRGIALALSAIPLLLAYQLYEVVRVVQSQFSLSFQEAASTVIIQHPVGQSWFVVFTVTVFLGVLLLFPEKRVTANLFFVGVLLLIVSVSWVSHGTALLGWQGFVLNTSHLLASAVWIGTLLMVGWGARPLTDGLKFHRWFSLMVVCAVAVLSVSGLLLMNVIVPEYVPSWALTYGQFLLMKHLLFLPLLLFGLRHLLWLRAEKPLSVVQRSIRIESVVGCVVFFLSAFMTRQTPPHEVAETMQVEPPAWSFLLFHPEGLSVFQQLTLSLTGWGIACLVLAMIGLAASVLSLRHKSLFVFTTSSLTASLFLYVGLMLSVTPVSILVDETRYPTVEAAIQATYEDKTSIDIVLEDETEETTTVIYTVNAHDFVIEKLGIDSETDDFYRLPAAMLTVGGTSVYDEPMKIRTFQVTDGQWKETGSNYTYVTFGMIQEPKETVRLQLHYEDGSYVTELTNGVFYHVYQSDVEMSQPVIDLLAEDGTKVDQFLPAGVEQGVYCH” as the sequence, how does the protein production read?
The protein production was “failed”.

For “MLSKIVDINAARQNIDMKVKLLSLNKRTIKNDRGETVYYYGIIGDETGTVPFTAWTFPPAVRVGDVIEIRSCYSNIYNGKIRIYIDGRSEVILKPDVEMEVKRSSDLVKIRDVSLSTPYVSVIGKITGIHKKEYESDGTTKSVYQGYIEDDTARIRISSFGKQLQDSDVVRIDNARVAQFNGYLSLSVGDSSRIESVNVNIPEKPRHIFISEIRSPVGGITIVGFVVSVGQGSRIFTKCSVCRRIVEDGTCKDHPKAPVYPDIFGYFSISDGTGTITCYINSDSFLPYAGISQDQFRRDAYSMNPNSLIKKNLLGKCISVSGDLRSQDDRIVMNVQSMKAISAEDNREIESIIEEEFQ”, which protein production is on record?
The protein production was “failed”.

With “MLSMVEVKIIKSDGFFNEVLISSDKKIHFDTAYAEGDFNCFGEGSIVSETTDDLKFKIANLIPGKYHFKIAIDQYKILREAENRSGSYSFSIWLEKPYHNPDYAQFCAIIDKKLMDVRIAVPKHSISVSIFTKDTLKPVYSRRASFDTFDAVEYVFDGMSDYYFEVDNSRLPKEGYFSPKVHIEHEGGSKIIYHIFPDRFFRVGPHLPTLSRWGDKPTFSSFFGGNLRGITEKIGYIKALNVDTIYLNPVYKSKSNHRYDVDDYFSIDGLLGGEQDFIELVNEAHENGIKIVADMVFNHTSTDFPYFLDALKNGKNSKYWNWYIFHGEGAAVFDGRAKGKTKPLYETFMGVGRMPKLNHKNAEVRKFCIDVMKYYKNKFGVDGFRYDVAHSIYPEFFLEAVKEFGNEMLHIGEAWCLPSMFMLSGYWNSFTNYYLRNAIIKFVREEINITEFYNMIQNMIISYGPLIQQNVMNILDSHDTERILRAFKGNKKKVKLAYSILFMFDGFATIYYGDEVGLDGGRDPDDRRCFPWDNMDEDMLQFLKKLGEIRRMYHTGSAGIITVEETQECKYITRLSGESIIKVAIAKKPVTLEGEIILSSCGEKTIYEGDFALSIAKYA” as the sequence, how does the protein production read?
Its protein production is “failed”.

With “MLSSVFQVLGGLALFLLAMEMMTNGLKNAAGHHLRHMLGHWTRTPLRALFAGFVITGIVQHSGAVTVATIGFVNAGLMTLAQSLGVVFGSNIGTTMTGWLVSLIGFGFKIEAMALPLLAAGVGFKLVSRNPRNQFLGEALAGFALFFLGLSILKTALESSALGFQNGHLINADYGLPAFMLIGLLATVLTQSSSAALAIVLTAAAGGLIPLDNAAAAVIGANLGSTSTAALSALKATANARRLATGHILFNLVTGVIALLVLPAMLWLVNTLTNLLDLEANPAVSLALFHTLFNVLGAAIMLPFTQPFARFLGRLFRSKEEDNAEPRYLDDTLVTTPELAIGAVDQEMKRLIGHSRGLLRVCLDRESLEESDVRPKADAVRNLNLAITDYIGRLRAEKMHPSVVDALTLSIRTCRYLAEATELTLHLVRLRALARRTDFETLESVFNRYFEVIRALVASETPVPEQLQEAETVYHQLKAATLQKMIRREFSSSLGAQVLDELSAVRRLTDQWSKALYWQDGVGLLNQSHDQASAS” as the sequence, how does the protein production read?
Its protein production is “failed”.

With “MLSTEHFLLFASIVLFAGIMAGKVGYRFGIPTLLIFLFTGMLFGVDGFGFQFSNADVAQSVGIIALSIILFTGGMDTRIRKVRPVIAQGLTLSTLGVLLTALLSGFFIFWLSGSDFGPYPFALSTSLLLAATMASTDSASVFAILRSQKMQLKENLAPTLEMESGSNDPMAYMLTIALIDFITTGQSGIGSIVLTFILQFVVGGTLGFLMGRLAVFILNRMNIHNDTLYPITLLCMVFFTFSVTSLLQGNGYLAVYIAGIVVGNNRVIHKKSINTFLDGITWLVQIILFILLGLLVNPREMLDVAPFSLVVGAFMILIARPLAVYFCLIPFRKISFRGKTFLSWVGLRGAVPIIFATYPMIDNIPGADQLFNVVFFITILSLLVQGSTISQVARWLGLDIPSPPIGSLFGVEIPEETGTKLEERVVDASMLSHGDLLMNLSLRDEELVILVRRGEGYRVPKGRMHLQVGDVLLIVSEKNLSQTLTSGDPENHPGLLQRLKHRLLRR” as the sequence, how does the protein production read?
Its protein production is “failed”.

For “MLSTSRSRFIRNTNESGEEVTTFFDYDYGAPCHKFDVKQIGAQLLPPLYSLVFIFGFVGNMLVVLILINCKKLKCLTDIYLLNLAISDLLFLITLPLWAHSAANEWVFGNAMCKLFTGLYHIGYFGGIFFIILLTIDRYLAIVHAVFALKARTVTFGVVTSVITWLVAVFASVPGIIFTKCQKEDSVYVCGPYFPRGWNNFHTIMRNILGLVLPLLIMVICYSGILKTLLRCRNEKKRHRAVRVIFTIMIVYFLFWTPYNIVILLNTFQEFFGLSNCESTSQLDQATQVTETLGMTHCCINPIIYAFVGEKFRRYLSVFFRKHITKRFCKQCPVFYRETVDGVTSTNTPSTGEQEVSAGL”, which protein production is on record?
Its protein production is “failed”.

With “MLSVRIPGPARQAWAIVEQRPWLARRPFIIHGPPWRLASQQEDDVFKLMSRSAVKMVERYLPDPYVFVVLLTLVAAGAAMIIEGQTPMAVVRWWGNGFWGLLTFAMQMLLVLVTGYMLASTPLVKRMLARLASLATSAGGAIILVSVVSLAASWINWGFGLVVGALFAKQIARQVRVDYRLLVASAYSGFIIWHGGLAGSIPLTIATEGHFSADKIGIIPTGDTIFAVFNLVIVVAMFILVPLVNRLMLPDEKESVYVDPARLEEASVPASDDDKRPAARLENSRLLAWLIAAGGLAYMFDYYVVRGAGLNLNVINFSFLILAILLHGTPRRLLTSLDEAIKGGAGIVIQFPFYAGIMAIMMDSGLAATLSEWFVSIASAATLPFWTFISAGIVNIFIPSGGGQWAVQSPIVISAAQALGADMPRVAMAVAWGDAWTNMLQPFWALPVLAIAGLKAKDIMGYCIIQLLVTGVIISVGLSFF” as the sequence, how does the protein production read?
The protein production was “failed”.

For “MLTFAAAVLFLIITPGPGVMTTAGFGAAYGFRASLSYVVGLFIGTNLVMLAVMTGLAAVLLSVPGLRLVLLVLSVGYLLYLAALIALAGARVAFIEARSAPGVMRGVLLQAINPKAYAVNTSLITGFNYAPDAFLFEMFTKALILNAIWIPIHLAWLWAGAALHRLNLPHSTQRAINILMALSMLGVVALALWSASRVKA”, which protein production is on record?
The protein production was “failed”.

With “MLTFETLCQWHRAWLGNVYSWAGQSRTVDMSKPNIRFASPVQIPKLAEKFEARYLPRFAELPEMTDEELVAFLAEVHVEFILIHPFREGNGRISRLLLDVMAAKAGAEPLDYSLWDEHKDFYFKAIQAGRDGDYQHVERLIRDVLEAQQLEHHHHHH” as the sequence, how does the protein production read?
Its protein production is “failed”.

With “MLTGRRYLLAFTPEQEEFAEKIGDACRVVWNTALEQRRQYRRRGAFIGYVEQARQMAEAKKDFPWLAEAPSHTLQQTLRDLERACKTHGTFKVRWRSKRKNAPTFRFPDPKQITVERISRRWGRVKLPKLGWTRFRWTRPLGGQLRNATVLKDGGRWYISFCVEDGLMESAPNGKPPVGVDRGVTVAVATSSGWMRDREFVTPGEAVRLKRLQQQLARQRKGSNRRAATRAKLTKLNARIRARRTDFLAWTANRLTCDHGLVVVEDLNIRNMTASAKGTLAEPGRNVAAKAGLNRAILAKGWGGLLTALEHKARYHGSRILRVPPAFTSQTCHACGHCAPDNRESQAEFRCRACGHQANADVNAAKNILAAGLAVTGRGDLAVGRSVKRQPPKVEAA” as the sequence, how does the protein production read?
The protein production was “failed”.

Which protein production does the source give for “MLTKSVAVITSTIGRPELERAIQSVQQQTYPCQHYVFVDGVQFAEQAKQILDKYPQVIVTYLPMNTGANGWSNSSINAIAPFLAKEDMICYLDDDNWYEPNHVETCLTCLMQNQLDYVYSYRNLINSVNNHFICRDTFESVGPNKALKLDISSNMLNIAGSIQLHNENHIDTNTYFLTRKVALEASQYWYSGRSNDNNVSNWLLFSAYKGICTKTYSVNYLFDPTTFFNTFYQMICQNTPLNSSEQDKIAILEALIRAISDSQASD” here?
The protein production was “failed”.

Which protein production does the source give for “MLTLAPCGRGPCAARGEGASRPVLTKSHSSSRLKPTSAGQHPGAGRGPLAWGMTEPVPVAPFPSVFGGVQQLRPDVFRVRLPLVNIFLMGVPGGDWVLVDTGMPGTAGLIRQAAAQVYGARAPQAIVLTHGHFDHIGALHALLAEWNVPVYAHPDELPHLTGEVPYRFPDPTVGGLMSLTSPLFLPGPYDFRPQVRTLPEDGTVPELPGWRWVHTPGHTEGHVSLWREADRLLIAGDAVVTTPQETVPGALASTPTVLRRPPAYYTPNWNATRDSVRTLAALRPALVATGHGHPLTDDSLGDALTRLADDFDHDPNGRPAHGWYLGHPAPMQKPRPGEPDPMRTLFLGALGAAGALWLLGRRRR” here?
Its protein production is “failed”.

For “MLTLVLASAQSPDLRGRGPDMEPRSSVAKSGVALGVLLLIGLPVAAQNSKVKTNYLSHIEPCNGVGATPLDVRIDACTAFIEASQGTTAALAIAYNNRGNAYTAKGDYDKAIRDFDQSIALKPTYAKAFNNRGVAYLRKGEYELAIEAFDDAIKLDPDYVAAFVNRAGAYLKKNDHQRAAHDYDEAIRLQPDSQAARSGRCWTRAVLGAWQAALEDCDRALQSGSTSAAVYDSRGLIHLKMGEFGAAIADYNSALRAAPELASALFGRGLAKLKQGDAIGGDSDISAAKTIQGNIGDEFAHYGVGRD”, which protein production is on record?
Its protein production is “failed”.

With “MLTQEQIDGIYEDLEHPFHFLWFDIGDAHGVSSGETDPASFEERKKDFLFLVEKLLDEGKLKLGNRKTELIIDGTTAELVEMFRKSFPASDEEMLEGLWLVTEDCPFVAVWLFEGENGEDYYGWC” as the sequence, how does the protein production read?
Its protein production is “failed”.

With “MLTTFIVNSPILASIVFTLITIATYQFASACQQKWQYIWLNPMLFTISILVPFLLLIDINYQEYSQTTEILNLLLEPAIVALGMPLYQQFKQIRFYWREMTAILVLGITVVITVSFLLAMWLIKAPEIAIALSLKSVTTPIGITLTEQLFGDSSITAFAILIAGLFGALLGPQWLSFIGINSAKAQGLAIGSASHVIGTAVLVRKSAEHGAYSSVALILSAILTALISPWLIPLLQRLVT” as the sequence, how does the protein production read?
Its protein production is “failed”.

Reference: a protein production outcome set (Wang et al. 2014)
